From PMC5093550

Tests used:
α-synuclein fibrils [1] = experiment: fluorescence spectroscopy of the fibrils formed; seeded fibrils formed with unlabelled monomeric α-synuclein and monomeric Alexa-568-β-synuclein, compared with fibrils formed with Alexa-568-α-synuclein; pH 6.5
α-synuclein fibrils [2] = experiment: microfluidic diffusional sizing; monomeric Alexa-568-β-synuclein incubated (15 min) with unlabelled α-synuclein fibrils at [α-synuclein fibrils]:[β-synuclein monomer] (M:M) of 5 and 40; conditions of the seeded kinetic experiments (pH 6.5); degree of binding estimated from the effective hydrodynamic radius

## Alexa-568-β-synuclein, monomeric (from UniProt Q16143 1-134) (natural protein)
α-synuclein fibrils [1]
  degree of incorporation into the fibrils: < 3%
α-synuclein fibrils [2]
  degree of binding at [α-synuclein fibrils]:[β-synuclein monomer] ratio 5: < 5%
  degree of binding at [α-synuclein fibrils]:[β-synuclein monomer] ratio 40: 10%
